Laboratory results reported in PMC9482650, “Quantitative fragmentomics allow affinity mapping of interactomes” (Nature Communications, 2022).

T1: NHERF3_1, Q5T2W1
T1 sequence (Q5T2W1 4-100, limits assumed, looked up): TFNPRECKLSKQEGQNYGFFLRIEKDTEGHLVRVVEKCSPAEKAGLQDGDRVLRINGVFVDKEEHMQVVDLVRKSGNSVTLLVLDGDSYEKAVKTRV

T2: NHERF3_3, Q5T2W1
T2 sequence (Q5T2W1 238-333, limits assumed, looked up): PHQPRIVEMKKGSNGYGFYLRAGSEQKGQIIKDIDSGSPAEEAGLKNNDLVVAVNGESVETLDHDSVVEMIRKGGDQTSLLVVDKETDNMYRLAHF

T3: SNTG1, Q9NSN8
T3 sequence (Q9NSN8 52-150, limits assumed, looked up): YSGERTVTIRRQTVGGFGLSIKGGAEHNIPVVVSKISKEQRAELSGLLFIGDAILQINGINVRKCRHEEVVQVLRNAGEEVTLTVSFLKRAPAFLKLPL

T4: HTRA3, P83110
T4 sequence (P83110 354-453, limits assumed, looked up): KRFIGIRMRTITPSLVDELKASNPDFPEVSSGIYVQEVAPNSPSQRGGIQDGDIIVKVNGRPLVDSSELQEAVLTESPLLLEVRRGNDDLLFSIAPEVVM

T5: LNX2_2, Q8N448
T5 sequence (Q8N448 334-432, limits assumed, looked up): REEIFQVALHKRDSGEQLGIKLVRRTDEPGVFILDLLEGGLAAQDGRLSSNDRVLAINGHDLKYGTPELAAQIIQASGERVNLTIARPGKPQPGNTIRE

T6: LIN7B, Q9HAP6
T6 sequence (Q9HAP6 88-185, limits assumed, looked up): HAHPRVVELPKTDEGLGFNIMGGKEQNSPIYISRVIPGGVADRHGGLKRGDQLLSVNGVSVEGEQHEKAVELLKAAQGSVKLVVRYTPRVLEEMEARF

T7: LRRC7, Q96NW7
T7 sequence (Q96NW7 1440-1537, limits assumed, looked up): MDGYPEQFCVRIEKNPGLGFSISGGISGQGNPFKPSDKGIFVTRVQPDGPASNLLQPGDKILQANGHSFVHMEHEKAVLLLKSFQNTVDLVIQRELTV

T8: CARD11, Q9BXL7
T8 sequence (Q9BXL7 662-765, limits assumed, looked up): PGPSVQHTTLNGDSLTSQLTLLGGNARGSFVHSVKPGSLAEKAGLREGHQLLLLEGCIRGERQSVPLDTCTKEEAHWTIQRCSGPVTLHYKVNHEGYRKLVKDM

T9: PCLO, Q9Y6V0
T9 sequence (Q9Y6V0 4491-4600, limits assumed, looked up): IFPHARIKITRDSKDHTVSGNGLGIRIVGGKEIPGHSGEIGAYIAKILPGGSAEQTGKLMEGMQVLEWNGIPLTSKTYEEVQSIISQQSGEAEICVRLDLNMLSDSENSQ


biological target: T1, NHERF3_1, Q5T2W1; test: holdup assay; parameters: key: below the threshold = too weak to quantify, mostly under pKd 3.1 to 4; conditions: plain residues with an end cap or a label only (N-terminal biotin on a linker: ado-ado)

pKd | Binder
3.72 | PSVGSKKTVL [REELD1, A0A1B0GV85]

biological target: MAGI2_4, Q86UL8; test: holdup assay; parameters: key: below the threshold = too weak to quantify, mostly under pKd 3.1 to 4; conditions: plain residues with an end cap or a label only (N-terminal biotin on a linker: ado-ado)
Sequence (Q86UL8 772-865): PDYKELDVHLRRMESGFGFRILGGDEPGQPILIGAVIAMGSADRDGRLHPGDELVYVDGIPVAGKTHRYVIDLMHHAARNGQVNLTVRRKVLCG

pKd | Binder
below the threshold | PSVGSKKTVL [REELD1, A0A1B0GV85]

biological target: Inadl_5, Q8NI35; test: holdup assay; parameters: key: below the threshold = too weak to quantify, mostly under pKd 3.1 to 4; conditions: plain residues with an end cap or a label only (N-terminal biotin on a linker: ado-ado)
Sequence (Q8NI35 673-780): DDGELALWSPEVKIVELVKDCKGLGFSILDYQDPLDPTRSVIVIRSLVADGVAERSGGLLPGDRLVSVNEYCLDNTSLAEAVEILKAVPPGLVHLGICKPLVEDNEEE

pKd | Binder
below the threshold | PSVGSKKTVL [REELD1, A0A1B0GV85]

biological target: IL16_3, Q14005; test: holdup assay; parameters: key: below the threshold = too weak to quantify, mostly under pKd 3.1 to 4; conditions: plain residues with an end cap or a label only (N-terminal biotin on a linker: ado-ado)
Sequence (Q14005 1107-1207): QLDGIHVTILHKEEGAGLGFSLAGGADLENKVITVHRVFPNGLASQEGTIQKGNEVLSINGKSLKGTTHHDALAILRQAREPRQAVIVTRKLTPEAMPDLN

pKd | Binder
below the threshold | PSVGSKKTVL [REELD1, A0A1B0GV85]

biological target: DLG4_3, P78352; test: holdup assay; parameters: key: below the threshold = too weak to quantify, mostly under pKd 3.1 to 4; conditions: plain residues with an end cap or a label only (N-terminal biotin on a linker: ado-ado)
Sequence (P78352 306-403): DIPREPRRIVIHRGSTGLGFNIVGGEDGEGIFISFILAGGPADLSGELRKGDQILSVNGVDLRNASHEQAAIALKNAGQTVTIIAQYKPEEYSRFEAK

pKd | Binder
below the threshold | PSVGSKKTVL [REELD1, A0A1B0GV85]

biological target: GRIP2_5, Q9C0E4; test: holdup assay; parameters: key: below the threshold = too weak to quantify, mostly under pKd 3.1 to 4; conditions: plain residues with an end cap or a label only (N-terminal biotin on a linker: ado-ado)
Sequence (Q9C0E4 544-642): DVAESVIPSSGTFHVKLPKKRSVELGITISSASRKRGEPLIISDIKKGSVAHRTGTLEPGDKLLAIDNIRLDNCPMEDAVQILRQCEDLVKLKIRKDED

pKd | Binder
below the threshold | PSVGSKKTVL [REELD1, A0A1B0GV85]

biological target: GOPC, Q9HD26; test: holdup assay; parameters: key: below the threshold = too weak to quantify, mostly under pKd 3.1 to 4; conditions: plain residues with an end cap or a label only (N-terminal biotin on a linker: ado-ado)

pKd | Binder
4.26 | PSVGSKKTVL [REELD1, A0A1B0GV85]

biological target: SNX27, Q96L92; test: holdup assay; parameters: key: below the threshold = too weak to quantify, mostly under pKd 3.1 to 4; conditions: plain residues with an end cap or a label only (N-terminal biotin on a linker: ado-ado)

pKd | Binder
3.71 | PSVGSKKTVL [REELD1, A0A1B0GV85]

biological target: T2, NHERF3_3, Q5T2W1; test: holdup assay; parameters: key: below the threshold = too weak to quantify, mostly under pKd 3.1 to 4; conditions: plain residues with an end cap or a label only (N-terminal biotin on a linker: ado-ado)

pKd | Binder
below the threshold | PSVGSKKTVL [REELD1, A0A1B0GV85]

biological target: T3, SNTG1, Q9NSN8; test: holdup assay; parameters: key: below the threshold = too weak to quantify, mostly under pKd 3.1 to 4; conditions: plain residues with an end cap or a label only (N-terminal biotin on a linker: ado-ado)

pKd | Binder
below the threshold | PSVGSKKTVL [REELD1, A0A1B0GV85]

biological target: TJP2_1, Q9UDY2; test: holdup assay; parameters: key: below the threshold = too weak to quantify, mostly under pKd 3.1 to 4; conditions: plain residues with an end cap or a label only (N-terminal biotin on a linker: ado-ado)
Sequence (Q9UDY2 24-128): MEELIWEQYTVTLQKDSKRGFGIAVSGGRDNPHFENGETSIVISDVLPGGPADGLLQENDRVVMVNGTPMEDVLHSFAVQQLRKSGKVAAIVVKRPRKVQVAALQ

pKd | Binder
4.1 | PSVGSKKTVL [REELD1, A0A1B0GV85]

biological target: LAP2, Q96RT1; test: holdup assay; parameters: key: below the threshold = too weak to quantify, mostly under pKd 3.1 to 4; conditions: plain residues with an end cap or a label only (N-terminal biotin on a linker: ado-ado)
Sequence (Q96RT1 other isoform, or with tags, fused parts or gaps): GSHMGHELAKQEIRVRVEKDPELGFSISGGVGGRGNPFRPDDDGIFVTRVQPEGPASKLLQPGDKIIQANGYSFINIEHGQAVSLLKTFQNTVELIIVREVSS

pKd | Binder
below the threshold | PSVGSKKTVL [REELD1, A0A1B0GV85]

biological target: DLG5_1, Q8TDM6; test: holdup assay; parameters: key: below the threshold = too weak to quantify, mostly under pKd 3.1 to 4; conditions: plain residues with an end cap or a label only (N-terminal biotin on a linker: ado-ado)
Sequence (Q8TDM6 617-713): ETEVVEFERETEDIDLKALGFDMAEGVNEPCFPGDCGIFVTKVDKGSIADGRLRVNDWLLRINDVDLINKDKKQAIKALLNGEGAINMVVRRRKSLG

pKd | Binder
below the threshold | PSVGSKKTVL [REELD1, A0A1B0GV85]

biological target: NHERF4_1, Q86UT5-2; test: holdup assay; parameters: key: below the threshold = too weak to quantify, mostly under pKd 3.1 to 4; conditions: plain residues with an end cap or a label only (N-terminal biotin on a linker: ado-ado)
Sequence (Q86UT5 other isoform, or with tags, fused parts or gaps): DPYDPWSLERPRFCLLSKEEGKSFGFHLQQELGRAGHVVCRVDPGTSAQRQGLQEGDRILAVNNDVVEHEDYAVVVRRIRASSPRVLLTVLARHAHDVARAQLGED

pKd | Binder
3.95 | PSVGSKKTVL [REELD1, A0A1B0GV85]

biological target: T4, HTRA3, P83110; test: holdup assay; parameters: key: below the threshold = too weak to quantify, mostly under pKd 3.1 to 4; conditions: plain residues with an end cap or a label only (N-terminal biotin on a linker: ado-ado)

pKd | Binder
below the threshold | PSVGSKKTVL [REELD1, A0A1B0GV85]

biological target: T5, LNX2_2, Q8N448; test: holdup assay; parameters: key: below the threshold = too weak to quantify, mostly under pKd 3.1 to 4; conditions: plain residues with an end cap or a label only (N-terminal biotin on a linker: ado-ado)

pKd | Binder
below the threshold | PSVGSKKTVL [REELD1, A0A1B0GV85]

biological target: GRIP2_7, Q9C0E4; test: holdup assay; parameters: key: below the threshold = too weak to quantify, mostly under pKd 3.1 to 4; conditions: plain residues with an end cap or a label only (N-terminal biotin on a linker: ado-ado)
Sequence (Q9C0E4 934-1023): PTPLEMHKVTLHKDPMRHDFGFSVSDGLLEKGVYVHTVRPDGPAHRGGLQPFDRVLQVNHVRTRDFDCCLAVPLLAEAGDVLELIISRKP

pKd | Binder
below the threshold | PSVGSKKTVL [REELD1, A0A1B0GV85]

biological target: LDB3, O75112; test: holdup assay; parameters: key: below the threshold = too weak to quantify, mostly under pKd 3.1 to 4; conditions: plain residues with an end cap or a label only (N-terminal biotin on a linker: ado-ado)
Sequence (O75112 1-94): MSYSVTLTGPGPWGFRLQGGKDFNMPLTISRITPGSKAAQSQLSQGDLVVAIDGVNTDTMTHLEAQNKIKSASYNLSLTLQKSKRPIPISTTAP

pKd | Binder
below the threshold | PSVGSKKTVL [REELD1, A0A1B0GV85]

biological target: T6, LIN7B, Q9HAP6; test: holdup assay; parameters: key: below the threshold = too weak to quantify, mostly under pKd 3.1 to 4; conditions: plain residues with an end cap or a label only (N-terminal biotin on a linker: ado-ado)

pKd | Binder
below the threshold | PSVGSKKTVL [REELD1, A0A1B0GV85]

biological target: PICK1, Q9NRD5; test: holdup assay; parameters: key: below the threshold = too weak to quantify, mostly under pKd 3.1 to 4; conditions: plain residues with an end cap or a label only (N-terminal biotin on a linker: ado-ado)
Sequence (Q9NRD5 17-115): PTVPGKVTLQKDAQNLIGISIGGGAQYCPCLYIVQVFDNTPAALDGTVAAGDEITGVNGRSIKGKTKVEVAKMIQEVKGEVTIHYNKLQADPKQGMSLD

pKd | Binder
below the threshold | PSVGSKKTVL [REELD1, A0A1B0GV85]

biological target: SCRIB_3, Q14160; test: holdup assay; parameters: key: below the threshold = too weak to quantify, mostly under pKd 3.1 to 4; conditions: plain residues with an end cap or a label only (N-terminal biotin on a linker: ado-ado)
Sequence (Q14160 999-1103): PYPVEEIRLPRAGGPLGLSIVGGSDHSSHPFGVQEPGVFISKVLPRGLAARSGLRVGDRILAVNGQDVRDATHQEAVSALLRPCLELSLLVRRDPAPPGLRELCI

pKd | Binder
3.6 | PSVGSKKTVL [REELD1, A0A1B0GV85]

biological target: T7, LRRC7, Q96NW7; test: holdup assay; parameters: key: below the threshold = too weak to quantify, mostly under pKd 3.1 to 4; conditions: plain residues with an end cap or a label only (N-terminal biotin on a linker: ado-ado)

pKd | Binder
below the threshold | PSVGSKKTVL [REELD1, A0A1B0GV85]

biological target: SCRIB_2, Q14160; test: holdup assay; parameters: key: below the threshold = too weak to quantify, mostly under pKd 3.1 to 4; conditions: plain residues with an end cap or a label only (N-terminal biotin on a linker: ado-ado)
Sequence (Q14160 857-960): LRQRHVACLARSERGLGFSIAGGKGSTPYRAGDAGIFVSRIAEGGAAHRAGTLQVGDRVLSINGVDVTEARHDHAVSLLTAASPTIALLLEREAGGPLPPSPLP

pKd | Binder
below the threshold | PSVGSKKTVL [REELD1, A0A1B0GV85]

biological target: GRID2IP_2, A4D2P6; test: holdup assay; parameters: key: below the threshold = too weak to quantify, mostly under pKd 3.1 to 4; conditions: plain residues with an end cap or a label only (N-terminal biotin on a linker: ado-ado)
Sequence (A4D2P6 272-370): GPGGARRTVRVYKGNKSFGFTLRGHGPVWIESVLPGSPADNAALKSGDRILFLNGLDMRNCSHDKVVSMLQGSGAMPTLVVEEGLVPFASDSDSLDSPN

pKd | Binder
4.75 | PSVGSKKTVL [REELD1, A0A1B0GV85]

biological target: NHERF4_2, Q86UT5; test: holdup assay; parameters: key: below the threshold = too weak to quantify, mostly under pKd 3.1 to 4; conditions: plain residues with an end cap or a label only (N-terminal biotin on a linker: ado-ado)
Sequence (Q86UT5 220-308): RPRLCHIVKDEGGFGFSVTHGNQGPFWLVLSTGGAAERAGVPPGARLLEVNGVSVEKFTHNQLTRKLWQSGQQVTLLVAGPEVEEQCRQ

pKd | Binder
below the threshold | PSVGSKKTVL [REELD1, A0A1B0GV85]

biological target: Inadl_10, Q8NI35; test: holdup assay; parameters: key: below the threshold = too weak to quantify, mostly under pKd 3.1 to 4; conditions: plain residues with an end cap or a label only (N-terminal biotin on a linker: ado-ado)
Sequence (Q8NI35 1673-1763): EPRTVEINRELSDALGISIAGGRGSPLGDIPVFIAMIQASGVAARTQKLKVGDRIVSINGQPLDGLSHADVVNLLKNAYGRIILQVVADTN

pKd | Binder
below the threshold | PSVGSKKTVL [REELD1, A0A1B0GV85]

biological target: T8, CARD11, Q9BXL7; test: holdup assay; parameters: key: below the threshold = too weak to quantify, mostly under pKd 3.1 to 4; conditions: plain residues with an end cap or a label only (N-terminal biotin on a linker: ado-ado)

pKd | Binder
below the threshold | PSVGSKKTVL [REELD1, A0A1B0GV85]

biological target: T9, PCLO, Q9Y6V0; test: holdup assay; parameters: key: below the threshold = too weak to quantify, mostly under pKd 3.1 to 4; conditions: plain residues with an end cap or a label only (N-terminal biotin on a linker: ado-ado)

pKd | Binder
below the threshold | PSVGSKKTVL [REELD1, A0A1B0GV85]
